Assay results: publication PMC13543948, “SNX-BAR proteins 5 and 6 are required for NCOA7-AS antiviral activity against influenza A virus” (The Journal of Biological Chemistry, 2026)
Numbering of substitutions follows the chain as printed. Where no end group is shown, it is not given here.

T1: GST-tagged NCOA7-AS-Y14F (human, UniProt Q8NI08-5 1-219, Y14F)
T1 construct: source: E. coli BL21 (DE3), purified (Ni-NTA, SEC); not shown: GST, C-terminal, kept
T1 sequence (looked up): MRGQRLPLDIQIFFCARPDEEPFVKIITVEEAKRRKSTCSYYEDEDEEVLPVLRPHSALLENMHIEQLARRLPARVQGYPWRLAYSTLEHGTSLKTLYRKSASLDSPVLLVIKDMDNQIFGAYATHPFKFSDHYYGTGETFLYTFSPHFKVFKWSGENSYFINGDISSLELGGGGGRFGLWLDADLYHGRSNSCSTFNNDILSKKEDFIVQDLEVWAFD

T2: GST-tagged NCOA7-AS (NCOA7-AS-WT-GST) (human, UniProt Q8NI08-5 1-219)
T2 construct: numbers count on: NCOA7-AS; Modified pET-30: MCS, TEV cleavage site, GST, His6; no cleavage is described for the GST-tagged proteins; also called GST-tagged-NCOA7-AS-WT; source: E. coli BL21 (DE3), purified (Ni-NTA, SEC); not shown: GST, C-terminal, kept
T2 sequence (looked up): T1 sequence (looked up) with F14Y

T3: MBP-tagged PX domain of SNX5 with F136A (MBP-PX-SNX5-F136A) (human, UniProt Q9Y5X3 25-172, F136A)
T3 construct: Phox homology (PX) domain of human sorting nexin 5; pMAL-PX-SNX5-F136A by site-directed mutagenesis; also called F136A mutant; source: E. coli BL21 (DE3), purified (amylose resin, SEC)
T3 sequence (looked up): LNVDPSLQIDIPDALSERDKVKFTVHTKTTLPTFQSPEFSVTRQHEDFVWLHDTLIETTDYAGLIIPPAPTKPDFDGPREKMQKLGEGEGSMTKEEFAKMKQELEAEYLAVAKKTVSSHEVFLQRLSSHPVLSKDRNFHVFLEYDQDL

B1: MBP-tagged PX domain of SNX5 (MBP-PX-SNX5) (domain or fragment, human, UniProt Q9Y5X3 25-172, looked up)
chain: T3 sequence (looked up) with A112F
notes: Phox homology (PX) domain of human sorting nexin 5; Cloned in pMAL-p4X; also called PX-SNX5-WT; source: E. coli BL21 (DE3), purified (amylose resin, SEC)
B2: FITC conjugated NCOA7-AS peptide (NCOA7-AS-NTD-FITC) (peptide)
peptide: RLPLDIQIFYCARPDEEPFVKIITVEEAKRR
modifications: also: FITC conjugated, position not given here
notes: numbers count on: NCOA7-AS; Printed as NH2-...-COOH; Limits worked out from Tyr14, Gln11, Glu21 and Val24 as numbered in the structure; also called fluorescently labeled NCOA7-AS-NTD
B3: GST-tagged NCOA7-AS N-terminal domain (NCOA7-AS-NTD-GST) (domain or fragment, human, UniProt Q8NI08-5 1-53, looked up)
chain: MRGQRLPLDIQIFYCARPDEEPFVKIITVEEAKRRKSTCSYYEDEDEEVLPVL
notes: numbers count on: NCOA7-AS; source: E. coli BL21 (DE3), purified (Ni-NTA, SEC); not shown: GST, C-terminal, kept

Experiments:
Details in all cases: both partners purified
GST-tagged NCOA7-AS-Y14F = biological target: T1, GST-tagged NCOA7-AS-Y14F; assay: pull-down; GST-tagged proteins (14-35 μg) on glutathione agarose beads, 85 μg MBP-tagged protein, 2 h at 4 °C; 50 mM Tris-HCl pH 8, 600 mM NaCl, 5 mM β-mercaptoethanol, 10% glycerol; Western blot (GST, MBP)
[1] = biological target: T2, GST-tagged NCOA7-AS (NCOA7-AS-WT-GST); assay: as above
[2] = biological target: B1; assay: microfluidic diffusional sizing; 57 nM FITC peptide tracked, MBP-PX-SNX5 proteins titrated 0.38-250 μM in PBS-10% glycerol; Fluidity One-W; hydrodynamic radius; one-site specific binding fit; apparent Kd
[3] = biological target: T3, MBP-tagged PX domain of SNX5 with F136A …; assay: as above
[4] = biological target: B1; assay: pull-down; GST-tagged proteins (14-35 μg) on glutathione agarose beads, 85 μg MBP-tagged protein, 2 h at 4 °C; 50 mM Tris-HCl pH 8, 600 mM NaCl, 5 mM β-mercaptoethanol, 10% glycerol; Western blot (GST, MBP)

B1: binds (GST-tagged NCOA7-AS-Y14F); binds [1].

B2 gave a Kd [2] of 1.4 µM and a Kd [3] of 13.4 µM.

B3: binds [4].
